# Results from the DeepSol protein solubility set.
# Assay: soluble on expression in E. coli; label from the status in PepcDB or PDB records
row,Sequence,soluble on expression in E. coli
1,MTSVLDPDRALEDEAKDKFGFVGIAKQLAPPIIEAAKGEGMVIGLEGRWGSGKTSLLNFLRAELQASKKSGIHTITIAPWLNGDTSSLVLSLLEPMAAVLKQKEDELAESYGEGQSATKERVAEVGRLLRAYGPKTARRIASLANVAGYVLPGAQAIGGALAASASAADEIFDVGPTPSELKQELAVKIQELNVGFIVILDDLDRLEPEQAVEVVRLVRSVADFPKVVYLMCYDREVLSEALKTGLKVSDGDLFLQKIVQLTFNIPLPEPFDLRTQFRNEAKAIYFEATGVDLDGAILHDLTYAVDREGMGLSTPREVKLALNSIRFVFSQVKDDVYFPDLCRLHLIKTTNYKLYKWLEIYLSVRSVLVTGDATVSEDEKTKMGEELKMLLPASGPGSVHSIWSLARFIPGVVDTEKVSERVFNAINSSAISEAVRLKRLGSPLHYRFYFALTGPKTVMPDEDFNAILELARNDIDQLESRLAAETMKRRDSGRTWFEHVLDRLDDDCISSLDESQLSGILHALSGMMDIAMKEDGEVRSFALSLDGIANIVAKRCLVRLRELNPEKQANTVRSMAQDGKAINWLVGKFFRSQLFNHGKVGERAERPEQWEISEDLLDDIIEILRKRLSEQDIKNLIPNLPNVSAYLYGWMNLTDDDQAKNWVQEYSESDEGFLDILNHLRGWAMSDKVYYPLSEKTVSSFLDWNEVKTRLDGMQSGEFSDKLEHHHHHH,soluble
2,MTTALHITLITETFPPEINGVANTLGRLCEGLRARGHQVELVRPRQGCDQSRASDEALLLCRGWPLPGYPGLQWGQSSMHKLLRRWKRQRPDVLYIATEGPLGLSALRAAKRLGISVVSGFHTNFQQYSSQYGLGLLTRLLTHYLRWFHNRSQLTLVPSASQHLELERRHFERLALLSRGVDSQLFHPAKRLDTLRADWGLGTDDLAVIHVGRLAQEKNLGLLKRCFERLQATYPQRRMKLIVVGDGPQRGALEKSLPEALFCGSQRGEALAAHYACGDLFLFPSLTETFGNVVLEALASGLAVVAYDQAGAAQHIRHGYNGVLAMPGDESAFCDAASWLLEEPETLRRVRLNARQHASRQGWAAVIEQFEDRLRSACEHGPAEDYEGLIEATVKPRSAVETLGTARGLPPSPPGAGSLEHHHHHH,soluble
3,MTTALKIDFISDVSCPWCVIGLRALDQALEALGDEVQAQIHFQPFELNPNMPAEGQDIKEHIAEKYGSTPEQIEAIHETIRERGAELGFTFGKGERRIYNTFDAHRLLHWAEQEGKQPALKQALFVAYFSELKDPSSHQTLADVAQKVGLDRLRAQAILDSDEFASEVREAEQLWTSRGITSVPTMVFNDQYAVSGGQPVEVFVSAIRQMLSESK,not soluble
4,MTTCLLDIDQQQSVLGAGYHEPRAYSPYGGMRVVPVSALAFCGQHLDPLTGSYPLGNGHRFYRPSLRRFISPDVLSPFGKGGLNAYAYCQGDPVNFADPSGRFPAIIAPVRNLVTGVINLGISAVKMYRNYRTGRDFALNSGYPASRSGVFTYGTSEHAVARWSVADKVVSAAGGISASLSIGTATARLITPESEVLAWVDFGVASFATVLSAYELYGLATSSAERRYPIQPVAYEIRTGVQPLEHHHHHH,soluble
5,MTTGNLQVAIYGFTARSRAFEPAGICYETRLIRDKLTLGHCTLPIYKNSPVAKPVTEQQRKKSSEEPAELRKDLFDADNEKYEKYLMKLDPNDCKNQDHYKVLGLSKLRWQATSDEIRFCYRQKVLKHHPDKKKHRGIVMEKEEYFTCITKAYEQVGMSDVKRQAFDSVDHKFNDIIPNEKSINHNNFYNELAPVFQLNSRWSNIKPVPELGKSDATREDVENFYDFWFNFQSWREFSYLDEEDKERGEDRYERREMEKQNKAERERRRKEEAKRIRKLVDIAYAKDPRIIKFKKEQQAKKDKAKEDKQRAIREKQEAIDREKREKEEAEAKQKEEADRKAKEEREREKKERDIAKKAMSQQRKRLKKLADEAGHWTENPRDKLTEMERIERICIGFTVDQLRELCEKVESLSIASEIQTALTDAEILKKEAAGAKVTITEDKNKENEKQADKETWTSEEIQLLVKASNTFPPGTVERWVQIADYINEHRKDSTGLPPKTEKQVIKQCKAVQTMNVKLPSTTQNQLGTALPDEDVWSATEQKTLEDAIKKHKSSDPERWEKISTEVGTKSKKACIRRFKYLVQMVKNKK,not soluble
6,MTTHQVKKSEAKRQHILDSGFHLVLRKGFVGVGLQEILKTSGVPKGSFYHYFESKEAFGCELLKHYISDYQIRLNQLWTTETSARDKLMNYLQCWVKDPATEQSWAESCLIVKMAAEVADLSEDMRLIMNDGVKRLIARMADLIRIGQQEGSIQTSVVPDVLAQVIYQMYLGAALLSKLYKHKAPLFQALESTKMMLDGCNHVQQDKNQ,soluble
7,MTTIEIDAPAGPIDALLGLPPGQGPWPGVVVVHDAVGYVPDNKLISERIARAGYVVLTPNMYARGGRARCITRVFRELLTKRGRALDDILAARDHLLAMPECSGRVGIVGFCMGGQFALVLSPRGFGATAPFYGTPLPRHLSETLNGACPIVASFGTRDPLGIGAANRLRKVTAAKNIPADIKSYPGAGHSFANKLPGQPLVRIAGFGYNEAATEDAWRRVFEFFGQHLRAGSPGEP,soluble
8,MTTKLQKRVNDLDEDIPRPPFSSHSDKTEDKEGVSEACPVCEKTVQNPCVLETGYVACYPCAISYLVNNEGHCPVTNKKLLGCTYNKHTNKWEVVTGIRKLLI,not soluble
9,MTTLRTLMAVSLVLNLAACGFKLRGQVSELPFERVYITAPAGLTIGSDLERVISTHTRAKVVNKAEKSEAIIQIVHAIREKRILSLSESGRVREFELVYRVAARLLDAHNAELASLQEIRLTRILPFLDAQELAKAAEEEMLYKDMQKDAVQQILRQVSAVTSAGLEHHHHHH,not soluble
10,MTTLTQVRPASVFVVSGGAKGITAQCVIELAQHQPCRFILLGRSEVIENEPDFARDCVEESVLKKAIMQHLLAQGEKPTPMSVQKVYHKIVSSREIKATLEAIAATGSQVEYIDVDVTNVAELRQKLADVGKITGIIHGAGNLADKLIEKKTDQDFEKVYTAKVQGLENLLSCVDANQLEHLVLFSSVAGFYGNMGQSDYAIANEILNKSAHLIKQNYPQCHVVAINWGGWDSGMVTPELKKAFAERGIDIIPVDVGTKMLVNELHPSHHDSTQVVIGSPIIPAPGNIDPQLRSYRIRRRMTVEANPFLLDHVIAGTPVLPATCGMSWMINACEECYPGYRYFRCQDFKILKGITFNDKVASEHILEIQEVAKHGSESIEFKTKVLSKTPEGKIHYHFSAHITIVRELPAAPVYESLDMTEDHTIGAIGKDFYQKGGLSLFHGISFQQITRVLNINSQKITVECCWAEIPLETQGQFPVKWHNPYATDLSTQPLWLWLSHVHQEVCLPGQITKSEQFRAIPRNKPFYVSCEIEHKTPSGVTADIILHDREGKIYFRIYQAKAIIAPMNLHLEHHHHHH,soluble
11,MTTQVKPIRSFLFVPGNKESMLDKAALAKADALILDLEDSVPPAEKLAARELVARKIPALIAQGQRIWVRINRSAHIYDLDDILAVAQPGVEGVVISKPWGPEDVYMASSMIAEAETRANLPLGSIGLIPLLETARSMQLCYEIAQMPRVVGIVGATAKNADMGRALKFVWTPEGRETEYLKSRVVMAARAAGKQAIGGIWQQIKDLEGLARSSAFDRQLGMSGELALHPMQVETINRTYTPTAEDVAYYQGMIDALDAAQAQGRASVMYDGEHIDIAHVKTAHEVIALARAFDAAAALEHHHHHH,soluble
12,MTTQVVNVIGAGLAGSEAAYQIAKRGVQVRLYEMRPVRQTPAHHTDKFAELVCSNSLRANTLTNAVGVIKEEMRLMDSVIIRAADECSVPAGGALAVDRHEFAAKVTEYVKNHPNVTVMNEEITEIPEGPTIIATGPLTSPDLSAQLKELTGEDYFYFYDAAAPIVEKDSIDMNKVYLKSRYDKGEAAYLNCPMTEEEFDRFYEALIAAETVPLKEFEKEIFFEGCMPVEVMASRGRQTLVFGPMKPVGLEDPKTGKTPYAVVQLRQDDAAGTLYNIVGFQTHLKWGPQKEVLQLIPGLENAEIVRYGVMHRNTFINSPNLLRPTYQYKQRDDLFFAGQMTGVEGYVESAASGLLAGINAARLVKGEEPVVLPPVTAMGSMANYITATNAKNFQPMNANFGLFAPLEKKIKKKAERNEAYATRALETIRNFVNILEHHHHHH,soluble
13,MTTRTRILTGITTTGTPHLGNYAGAIRPAIVASRDSNADSFYFLADYHALIKCDDPLRIQRSRQEIAATWLAGGLDVERVTFYRQSDIPEIPELTWLLTCVAAKGLLNRAHAYKASVDKNVEAGEDPDAGITMGLYSYPVLMAADILMFNAHKVPVGRDQIQHVEMARDIGQRFNHLFGQGKEFFTMPEALIEESVATLPGLDGRKMSKSYDNTIPLFTSAKDMKDAISRIVTDSKAPGEAKDPDNSHLFTLYQAFSTPAQAAEFRSELLHGLGWGEAKNRLFQLLDAELGEARERYHQLIARPSDLEDILRAGAVKARAVATPFLNELREAVGLRSFAAQVQVAATTKKKAAKAARFISFREDDGSFRFRLLSADGEQLLLSRNFADGKAAGAVTKQLQSGQELDLRTEGNAFGIWLDGACVADSPDFADASARDAAVDALRIALTPAQDLEHHHHHH,soluble
14,MTTYTFDQVEEAIEQLYPDFTINTIEISGEGNDCIAYEINGNFIFKFPKHSRASINLLNEVTVLKTIHNELSLPIPEVVFTGMPSEMCQMSFAGFTKIKGVPLTPLLLKNLPKQSQDQAAKDLARFLSELHSINISGFKSNLVLDFREKINEDNKKIKKLLSRELKGHQMKKVDDFYRDILDNEIYFKYYPCLIHNDFSSDHILFDTEKNTICGIIDFGDAAISDPDNDFISLMEDDEEYGMEFVSKILNHYKHKDIPTVLEKYMMKEKYWSFEKIIYGKEYGYMDWYEEGLNEIRSIKIK,soluble
15,MTVLAQLYYKYGTMNSGKTIEILKVAHNYEEQGKPVVIMTSSLDTRDGFGVVASRIGMRREAVTITDDMDIFAYIENMFKKPYCILIDESQFLSQKNVYDLARIVDELDVPVMAFGLKNDFQNHLFEGSRELLLLADKIEEIKTICQFCSKKATMVLRTENGRPVYKGNQIQIGGNETYIPVCRRHYFHPPIKALEHHHHHH,not soluble
16,MTVLVVRHGTAGSKAHFSGDDSKRPLDKRGRAQAEALVPQLLAFGATDVYAADRVRCHQTMEPLAAELNVTIHNEPTLTEESYANNPKRGRHRVLQIVEQVGTPVICTQGKVIPDLITWWCERDGVHPDKSRNRKGSTWVLSLSAGRLVTADHLEHHHHHH,not soluble
17,MTWEFENPLFVNSSGTAVGPKEKEGPLGHLFDKSYDEMHCNQKNWEMAERKLMEDAVQSALSKQNLKKEDIDIFLAGDLLNQNVTANYVARHLKIPFLCLFGACSTSMESIAISSALIDGGFAKRALAATSSHNATAERQFRYPTEYGGQKPGTATSTVTGSGAVVLSQQPGGIKITSATVGRVIDLGITDSQDMGSAMAPAAADTIKQHLEDLGRTPDDYDLILTGDLSGVGSPILKDLLKEEGINVGTKHNDCGLMIYTPDQQVFAGGSGCACSAVVTFAHIFKEIEAGRLNRVLVVATGALLSPTIIQQKESIPCIAHGVVFERAERGNALEHHHHHH,not soluble
18,MTWFIDRRLNGKNKSMVNRQRFLRRYKAQIKQSISEAINKRSVTDVDSGESVSIPTEDISEPMFHQGRGGLRHRVHPGNDHFVQNDRIERPQGGGGGSGSGQGQASQDGEGQDEFVFQISKDEYLDLLFEDLALPNLKQNQQRQLTEYKTHRAGYTANGVPANISVVRSLQNSLARRTAMTAGKRRELHALEENLAIISNSEPAQLLEEERLRKEIAELRAKIERVPFIDTFDLRYKNYEKRPDPSSQAVMFCLMDVSGSMDQSTKDMAKRFYILLYLFLSRTYKNVEVVYIRHHTQAKEVDEHEFFYSQETGGTIVSSALKLMDEVVKERYNPAQWNIYAAQASDGDNWADDSPLCHEILAKKLLPVVRYYSYIEITRRAHQTLWREYEHLQSTFDNFAMQHIRDQDDIYPVFRELFHKQNATAKGLEHHHHHH,not soluble
